Measurements taken from the supplement of paper PMC12067230.
± gives the uncertainty stated by the source.

B1: Y-34-R; numbered along this chain (parent)
chain: EASNCFAIRHFENKFAVETLICFNLFLNSQEKHY

Variants of: B1
Assay: amyloid nucleation score relative to WT ADan (yeast Sup35 reporter selection) (log enrichment difference); higher = more amyloid nucleation
In short: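 A psi-minus, pin-minus S. cerevisiae strain carried a library of single amino-acid substitution and stop-truncation variants of the ADan peptide fused to the Sup35 nucleation domain, in three biological replicates. Expression was induced for 24 h in SC-URA with 2% glucose and 100 μM copper sulfate, then cells were selected on adenine-lacking plates for 7 d at 30 °C. Input and output plasmids were Illumina-sequenced, and variants with fewer than 200 input reads were dropped. Nucleation score is the log output/input enrichment minus that of the unmutated peptide, merged across replicates by error-weighted mean in DiMSum.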

Amyloid nucleation score of substitutions, site by site:
Y34: R 0.398 ± 0.088, C 0.316 ± 0.14, K 0.234 ± 0.17, P -0.211 ± 0.18, L -0.0163 ± 0.1, D 0.321 ± 0.13, Q 0.196 ± 0.2, M 0.0777 ± 0.15, H 0.0246 ± 0.18, V 0.031 ± 0.11, N -0.386 ± 0.18, F -0.228 ± 0.14, S 0.193 ± 0.1, E 0.297 ± 0.14, G 0.194 ± 0.098, T -0.062 ± 0.14, I -0.222 ± 0.16, A -0.0498 ± 0.12, W -0.636 ± 0.14
H33: W -0.788 ± 0.17, Y -0.228 ± 0.17
